{"source": "paper PMC6451099", "about": "(Nucleic Acids Research, 2019)", "binders": {"B1": {"name": "FLAG-eEF1BδL (purified) (natural protein)", "chain": "MRSGKASCTLETVWEDKHKYEEAERRFYEHEATQAAASAQQLPAEGPAMNGPGQDDPEDADEAEAPDGGSRRDPRKSQDSRKPLQKKRKRSPKSGLGPADLALLGLSAERVWLDKSLFDQAESSYRQKLADVAAQAAWPPALAPWGLCTHGNQVACHHVTWGIWVNKSSFDQAERAFVEWSQALLLAPDGSRRQGTPNTGQQVAVPDLAHQPSPPVNGQPPLGSLQALVREVWLEKPRYDAAERGFYEALFDGHPPGKVRLQERAGLAEGARRGRRDRRGRNILGNKRAGLRRADGEAPSALPYCYFLQKDAEAPWLSKPAYDSAECRHHAAEALRVAWCLEAASLSHRPGPRSGLSVSSLRPNRKMATNFLAHEKIWFDKFKYDDAERRFYEQMNGPVAGASRQENGASVILRDIARARENIQKSLAGSSGPGASSGTSGDHGELVVRIASLEVENQSLRGVVQELQQAISKLEARLNVLEKSSPGHRATAPQTQHVSPMRQVEPPAKKPATPAEDDEDDDIDLFGSDNEEEDKEAAQLREERLRQYAEKKAKKPALVAKSSILLDVKPWDDETDMAQLEACVRSIQLDGLVWGASKLVPVGYGIRKLQIQCVVEDDKVGTDLLEEEITKFEEHVQSVDIAAFNKI"}, "B2": {"name": "His-HSF1 (purified) (natural protein, human, UniProt Q00613 1-529, looked up)", "chain": "MDLPVGPGAAGPSNVPAFLTKLWTLVSDPDTDALICWSPSGNSFHVFDQGQFAKEVLPKYFKHNNMASFVRQLNMYGFRKVVHIEQGGLVKPERDDTEFQHPCFLRGQEQLLENIKRKVTSVSTLKSEDIKIRQDSVTKLLTDVQLMKGKQECMDSKLLAMKHENEALWREVASLRQKHAQQQKVVNKLIQFLISLVQSNRILGVKRKIPLMLNDSGSAHSMPKYSRQFSLEHVHGSGPYSAPSPAYSSSSLYAPDAVASSGPIISDITELAPASPMASPGGSIDERPLSSSPLVRVKEEPPSPPQSPRVEEASPGRPSSVDTLLSPTALIDSILRESEPAPASVTALTDARGHTDTEGRPPSPPPTSTPEKCLSVACLDKNELSDHLDAMDSNLDNLQTMLSSHGFSVDTSALLDLFSPSVTVPDMSLPDLDSSLASIQELLSPQEPPRPPEAENSSPDSGKQLVHYTAQPLFLLDPGSVDTGSNDLPVLFELGEGSYFSEGDGFAEDPTISLLTGSEPPKAKDPTVS"}}, "assay_in_all_cases": "pull-down", "key": {"His-HSF1 (purified)": {"target": "B2"}, "GST-RNF20/FLAG-RNF40": {"target": "GST-RNF20/FLAG-RNF40 (human, UniProt Q5VTR2 1-975; O75150 1-1001)", "sequence (Q5VTR2 whole entry, chain 1 of 2)": "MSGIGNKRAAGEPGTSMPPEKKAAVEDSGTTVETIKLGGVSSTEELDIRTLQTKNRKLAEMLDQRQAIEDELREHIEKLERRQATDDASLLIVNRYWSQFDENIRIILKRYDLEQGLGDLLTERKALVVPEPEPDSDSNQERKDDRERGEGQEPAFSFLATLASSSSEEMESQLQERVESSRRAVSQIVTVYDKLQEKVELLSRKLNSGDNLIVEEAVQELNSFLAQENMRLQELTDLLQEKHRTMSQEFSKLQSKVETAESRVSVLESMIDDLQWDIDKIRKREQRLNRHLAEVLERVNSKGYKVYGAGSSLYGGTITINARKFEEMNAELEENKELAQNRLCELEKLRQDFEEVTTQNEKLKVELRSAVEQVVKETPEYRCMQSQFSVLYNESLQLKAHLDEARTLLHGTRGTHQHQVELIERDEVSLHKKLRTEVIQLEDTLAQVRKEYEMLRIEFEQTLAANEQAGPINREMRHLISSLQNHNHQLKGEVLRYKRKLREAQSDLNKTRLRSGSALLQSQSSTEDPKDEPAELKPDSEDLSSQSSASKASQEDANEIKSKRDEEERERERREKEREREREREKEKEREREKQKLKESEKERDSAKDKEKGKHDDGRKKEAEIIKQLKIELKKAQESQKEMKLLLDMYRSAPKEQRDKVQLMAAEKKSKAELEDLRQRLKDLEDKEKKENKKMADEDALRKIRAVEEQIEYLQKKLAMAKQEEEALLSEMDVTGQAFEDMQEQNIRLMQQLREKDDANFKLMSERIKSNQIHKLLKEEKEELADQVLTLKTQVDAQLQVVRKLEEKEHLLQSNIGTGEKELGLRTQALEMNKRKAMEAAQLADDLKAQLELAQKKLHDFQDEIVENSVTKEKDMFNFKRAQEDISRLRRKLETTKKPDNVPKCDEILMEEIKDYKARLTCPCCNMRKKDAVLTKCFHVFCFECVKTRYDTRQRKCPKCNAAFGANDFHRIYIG", "sequence (O75150 whole entry, chain 2 of 2)": "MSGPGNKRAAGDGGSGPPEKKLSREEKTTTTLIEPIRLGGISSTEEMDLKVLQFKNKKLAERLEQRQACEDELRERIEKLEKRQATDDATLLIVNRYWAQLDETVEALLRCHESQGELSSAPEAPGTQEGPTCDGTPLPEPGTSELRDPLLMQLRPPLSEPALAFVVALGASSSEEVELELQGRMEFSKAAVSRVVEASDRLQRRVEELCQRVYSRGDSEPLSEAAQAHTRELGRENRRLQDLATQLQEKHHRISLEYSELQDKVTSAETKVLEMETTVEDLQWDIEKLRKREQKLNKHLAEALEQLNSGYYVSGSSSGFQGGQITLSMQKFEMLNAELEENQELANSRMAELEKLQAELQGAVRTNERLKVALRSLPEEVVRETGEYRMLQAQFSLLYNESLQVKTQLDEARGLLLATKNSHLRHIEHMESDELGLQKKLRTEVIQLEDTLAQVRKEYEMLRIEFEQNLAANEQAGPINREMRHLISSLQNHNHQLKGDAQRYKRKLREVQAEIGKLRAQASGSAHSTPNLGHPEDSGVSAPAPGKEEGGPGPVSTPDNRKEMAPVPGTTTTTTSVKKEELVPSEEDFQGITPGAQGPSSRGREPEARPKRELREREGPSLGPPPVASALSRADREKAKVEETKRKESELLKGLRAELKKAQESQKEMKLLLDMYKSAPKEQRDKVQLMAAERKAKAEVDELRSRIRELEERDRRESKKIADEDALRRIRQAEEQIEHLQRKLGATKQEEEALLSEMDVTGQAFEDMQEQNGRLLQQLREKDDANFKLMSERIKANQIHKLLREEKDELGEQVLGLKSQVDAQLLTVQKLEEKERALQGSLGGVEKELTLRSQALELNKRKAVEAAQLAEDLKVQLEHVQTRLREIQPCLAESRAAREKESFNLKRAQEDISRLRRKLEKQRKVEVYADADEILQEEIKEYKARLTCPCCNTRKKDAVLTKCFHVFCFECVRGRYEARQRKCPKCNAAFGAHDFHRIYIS"}, "FLAG-eEF1BδL (purified)": {"target": "B1"}}, "data": [{"binder": "GST-eEF1BδL fragment of residues 181–367 (domain or fragment, human, UniProt P29692-2 181-367, looked up) SQALLLAPDGSRRQGTPNTGQQVAVPDLAHQPSPPVNGQPPLGSLQALVREVWLEKPRYDAAERGFYEALFDGHPPGKVRLQERAGLAEGARRGRRDRRGRNILGNKRAGLRRADGEAPSALPYCYFLQKDAEAPWLSKPAYDSAECRHHAAEALRVAWCLEAASLSHRPGPRSGLSVSSLRPNRKM", "values": [{"measurement": "binding result", "setting": "His-HSF1 (purified)", "result": "binds"}]}, {"binder": "B1", "values": [{"measurement": "binding result", "setting": "GST-RNF20/FLAG-RNF40", "result": "binds"}]}, {"binder": "B2", "values": [{"measurement": "binding result", "setting": "FLAG-eEF1BδL (purified)", "result": "binds"}]}]}
